Measurements: the supplement of paper PMC9112550, “Optimization of the antimicrobial peptide Bac7 by deep mutational scanning” (BMC Biology, 2022)

Tested on: Escherichia coli TOP10
Test: shrunken log2 fold change of peptide-encoding DNA abundance (4.5 h post-induction vs induction); higher = less antimicrobial activity (less host growth inhibition)
Details: time post-induction: 4.5 h; library: site-saturation at positions 5, 18, 19, 20
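Further: peptides expressed intracellularly from a pBAD plasmid library in pooled LB shake-flask culture, induced with 0.3% L-arabinose, DNA abundance read by NGS, three biological replicates, DESeq2 with apeglm shrinkage.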

In order of falling “shrunken log2 fold change” value:
1. RRIRWRPPRLPRPRPRPPIAPRP  2.1
2. RRIRMRPPRLPRPRPRPPLWPRP  1.31
3. RRIRLRPPRLPRPRPRPPQNPRP  1.26
4. RRIRRRPPRLPRPRPRPKHDPRP  1.2
5. RRIRARPPRLPRPRPRPSSNPRP  1.2
6. RRIRMRPPRLPRPRPRPVRGPRP  1.18
7. RRIRDRPPRLPRPRPRPTVAPRP  1.14
8. RRIRGRPPRLPRPRPRPREKPRP  0.969
9. RRIRARPPRLPRPRPRPELHPRP  0.964
10. RRIRKRPPRLPRPRPRPRSAPRP  0.884
11. RRIRSRPPRLPRPRPRPEAAPRP  0.873
12. RRIRNRPPRLPRPRPRPLRGPRP  0.654
13. RRIRDRPPRLPRPRPRPEACPRP  0.644
14. RRIRMRPPRLPRPRPRPRTGPRP  0.561
15. RRIRIRPPRLPRPRPRPPRGPRP  0.534
16. RRIRWRPPRLPRPRPRPRDHPRP  0.526
17. RRIRTRPPRLPRPRPRPGAAPRP  0.509
18. RRIRSRPPRLPRPRPRPPSGPRP  0.489
19. RRIRARPPRLPRPRPRPPLHPRP  0.467
20. RRIRRRPPRLPRPRPRPTFPPRP  0.444
21. RRIRLRPPRLPRPRPRPTRFPRP  0.42
22. RRIRPRPPRLPRPRPRPERYPRP  0.378
23. RRIRRRPPRLPRPRPRPVLFPRP  0.315
24. RRIRCRPPRLPRPRPRPTWWPRP  0.294
25. RRIRKRPPRLPRPRPRPFFLPRP  0.225
26. RRIRLRPPRLPRPRPRPVGRPRP  0.215
27. RRIRLRPPRLPRPRPRPIDAPRP  0.206
28. RRIRSRPPRLPRPRPRPGIFPRP  0.201
29. RRIRYRPPRLPRPRPRPRWWPRP  0.189
30. RRIRWRPPRLPRPRPRPESQPRP  0.185
31. RRIRNRPPRLPRPRPRPPDQPRP  0.184
32. RRIRKRPPRLPRPRPRPEHQPRP  0.163
33. RRIRMRPPRLPRPRPRPMTYPRP  0.157
34. RRIRCRPPRLPRPRPRPAWSPRP  0.15
35. RRIRNRPPRLPRPRPRPLGTPRP  0.135
36. RRIRWRPPRLPRPRPRPVWGPRP  0.131
37. RRIRERPPRLPRPRPRPMRSPRP  0.119
38. RRIRLRPPRLPRPRPRPNWWPRP  0.117
39. RRIRDRPPRLPRPRPRPMHSPRP  0.117
40. RRIRLRPPRLPRPRPRPRGKPRP  0.0746
41. RRIRYRPPRLPRPRPRPARHPRP  0.0712
42. RRIRHRPPRLPRPRPRPLGSPRP  0.0703
43. RRIRFRPPRLPRPRPRPEFSPRP  0.0686
44. RRIRTRPPRLPRPRPRPCFWPRP  0.0653
45. RRIRVRPPRLPRPRPRPLMAPRP  0.049
46. RRIRWRPPRLPRPRPRPHDKPRP  0.0422
47. RRIRMRPPRLPRPRPRPIRLPRP  0.0373
48. RRIRDRPPRLPRPRPRPHMWPRP  0.0299
49. RRIRYRPPRLPRPRPRPGHQPRP  0.0299
50. RRIRCRPPRLPRPRPRPSADPRP  0.0289
51. RRIRHRPPRLPRPRPRPWIEPRP  0.0254
52. RRIRTRPPRLPRPRPRPTDIPRP  0.0221
53. RRIRPRPPRLPRPRPRPDTRPRP  0.0199
54. RRIRDRPPRLPRPRPRPVWNPRP  0.00745
55. RRIRFRPPRLPRPRPRPAFPPRP  0.00578
56. RRIRSRPPRLPRPRPRPVMHPRP  0.00492
57. RRIRKRPPRLPRPRPRPLLKPRP  0.00409
58. RRIRRRPPRLPRPRPRPDRMPRP  -0.00208
59. RRIRQRPPRLPRPRPRPHELPRP  -0.00752
60. RRIRDRPPRLPRPRPRPIMWPRP  -0.00999
61. RRIRQRPPRLPRPRPRPIAMPRP  -0.0149
62. RRIRCRPPRLPRPRPRPLCMPRP  -0.0162
63. RRIRDRPPRLPRPRPRPKLRPRP  -0.0184
64. RRIRWRPPRLPRPRPRPTWMPRP  -0.029
65. RRIRFRPPRLPRPRPRPLECPRP  -0.0348
66. RRIRQRPPRLPRPRPRPICFPRP  -0.0372
67. RRIRSRPPRLPRPRPRPNEKPRP  -0.0451
68. RRIRPRPPRLPRPRPRPYSWPRP  -0.046
69. RRIRQRPPRLPRPRPRPANRPRP  -0.0467
70. RRIRERPPRLPRPRPRPKVCPRP  -0.0496
71. RRIRKRPPRLPRPRPRPISVPRP  -0.056
72. RRIRPRPPRLPRPRPRPNEEPRP  -0.0581
73. RRIRGRPPRLPRPRPRPFLRPRP  -0.0587
74. RRIRYRPPRLPRPRPRPAHPPRP  -0.0595
75. RRIRWRPPRLPRPRPRPHCGPRP  -0.0645
76. RRIRHRPPRLPRPRPRPLSPPRP  -0.0711
77. RRIRQRPPRLPRPRPRPQGKPRP  -0.0747
78. RRIRPRPPRLPRPRPRPYPKPRP  -0.0921
79. RRIRSRPPRLPRPRPRPPWIPRP  -0.0981
80. RRIRTRPPRLPRPRPRPLPDPRP  -0.0997
81. RRIRMRPPRLPRPRPRPGTMPRP  -0.115
82. RRIRTRPPRLPRPRPRPFMTPRP  -0.12
83. RRIRTRPPRLPRPRPRPFPWPRP  -0.125
84. RRIRERPPRLPRPRPRPSFEPRP  -0.132
85. RRIRERPPRLPRPRPRPMTMPRP  -0.136
86. RRIRVRPPRLPRPRPRPNFSPRP  -0.153
87. RRIRYRPPRLPRPRPRPNTCPRP  -0.155
88. RRIRTRPPRLPRPRPRPRIFPRP  -0.158
89. RRIRTRPPRLPRPRPRPSQTPRP  -0.169
90. RRIRKRPPRLPRPRPRPFNVPRP  -0.172
91. RRIRFRPPRLPRPRPRPVYWPRP  -0.195
92. RRIRWRPPRLPRPRPRPHFSPRP  -0.205
93. RRIRIRPPRLPRPRPRPKKHPRP  -0.21
94. RRIRDRPPRLPRPRPRPKYTPRP  -0.214
95. RRIRDRPPRLPRPRPRPLKAPRP  -0.214
96. RRIRYRPPRLPRPRPRPFYQPRP  -0.224
97. RRIRPRPPRLPRPRPRPWEAPRP  -0.224
98. RRIRFRPPRLPRPRPRPKYGPRP  -0.234
99. RRIRERPPRLPRPRPRPVPLPRP  -0.244
100. RRIRIRPPRLPRPRPRPPFMPRP  -0.256
101. RRIRLRPPRLPRPRPRPGNHPRP  -0.267
102. RRIRERPPRLPRPRPRPHMSPRP  -0.27
103. RRIRIRPPRLPRPRPRPTNQPRP  -0.28
104. RRIRNRPPRLPRPRPRPFYAPRP  -0.281
105. RRIRWRPPRLPRPRPRPVNLPRP  -0.291
106. RRIRPRPPRLPRPRPRPFVGPRP  -0.297
107. RRIRLRPPRLPRPRPRPNLHPRP  -0.347
108. RRIRTRPPRLPRPRPRPSQDPRP  -0.355
109. RRIRHRPPRLPRPRPRPLIIPRP  -0.377
110. RRIRTRPPRLPRPRPRPNYSPRP  -0.382
111. RRIRHRPPRLPRPRPRPCFIPRP  -0.385
112. RRIRFRPPRLPRPRPRPTYKPRP  -0.42
113. RRIRCRPPRLPRPRPRPFHSPRP  -0.458
114. RRIRNRPPRLPRPRPRPNISPRP  -0.476
115. RRIRDRPPRLPRPRPRPIIHPRP  -0.483
116. RRIRSRPPRLPRPRPRPPIFPRP  -0.576
117. RRIRIRPPRLPRPRPRPITAPRP  -0.592
118. RRIRYRPPRLPRPRPRPNNMPRP  -0.633
119. RRIRTRPPRLPRPRPRPNYEPRP  -0.682
120. RRIRFRPPRLPRPRPRPMGNPRP  -0.707
121. RRIRCRPPRLPRPRPRPNIPPRP  -0.822
122. RRIRQRPPRLPRPRPRPFDGPRP  -0.901
123. RRIRCRPPRLPRPRPRPYVLPRP  -0.903
124. RRIRFRPPRLPRPRPRPHTSPRP  -0.907
125. RRIRQRPPRLPRPRPRPYKYPRP  -1.49
